Measured values published in publication PMC4750968, “A Splice Variant of Bardet-Biedl Syndrome 5 (BBS5) Protein that Is Selectively Expressed in Retina” (PLoS ONE, 2016).

Legend:
Assay in all cases: pull-down; 6.6 uM I16C-Alexa546-ARR1 mixed with 0.1 uM BBS5L-GST, BBS5-GST or GST, overnight at 4°C; immunoprecipitated with anti-GST antibody on magnetic beads; fluorescence of the captured arrestin1 measured
[1] = target: BBS5L-GST phosphorylated by protein kinase C (mouse)
[2] = target: BBS5L-GST (splice variant of BBS5 in fusion with glutathione-S-transferase) (mouse)
[3] = target: T1, I16C-Alexa546-ARR1 (I16C-substituted bovine arrestin1 labeled with AlexaFluor-546) (bovine, UniProt P08168 1-404, I16C, AlexaFluor-546 on the reactive sulfhydryl group generated by I16C); details: both partners purified
T1 construct: arrestin1 (S-arrestin), bovine, with the substitution I16C; also called ARR1-Alexa546; fluorescently labeled arrestin1
T1 sequence (P08168 whole entry I16C): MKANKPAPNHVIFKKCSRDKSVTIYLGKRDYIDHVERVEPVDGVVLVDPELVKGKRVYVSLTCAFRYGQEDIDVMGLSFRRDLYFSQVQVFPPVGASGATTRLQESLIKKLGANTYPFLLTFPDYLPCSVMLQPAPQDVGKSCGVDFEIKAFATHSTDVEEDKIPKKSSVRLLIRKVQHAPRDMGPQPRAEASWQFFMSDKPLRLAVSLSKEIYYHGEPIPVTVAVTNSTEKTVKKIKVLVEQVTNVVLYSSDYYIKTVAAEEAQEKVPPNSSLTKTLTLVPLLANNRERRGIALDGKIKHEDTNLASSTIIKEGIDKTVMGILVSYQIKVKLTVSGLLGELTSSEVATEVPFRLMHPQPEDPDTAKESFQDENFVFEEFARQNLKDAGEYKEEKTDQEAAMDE

percent reduction of arrestin1 pull-down against unphosphorylated BBS5L [1] [%] | amount of arrestin1 bound relative to BBS5 [2] | binding result [3] | Molecule
31 | 0.5 fold of BBS5 |  | I16C-Alexa546-ARR1 (I16C-substituted bovine arrestin1 labeled with AlexaFluor-546) (from UniProt P08168 1-404) (natural protein)
 |  | binds | BBS5-GST (Bardet-Biedl Syndrome 5 protein in fusion with glutathione-S-transferase) (natural protein, mouse, UniProt Q9CZQ9 1-341, looked up, BBS5, mouse; open-reading frame amplified from murine retinal cDNA; cDNA for His-tagged BBS5 was cloned into pGEX-4T-1 at the EcoRI site, fused to the C-terminus of GST; not shown: GST, N-terminal, kept) MSVLDVLWEDRDVRFDVSSQQMKTRPGEVLIDCLDSIEDTKGNNGDRGRLLVTNLRIIWHSLALPRVNLSIGYNCILNITTRTANSKLRGQTEALYILTKCNTTRFEFIFTNLVPGSPRLFTSVIAVHRAYETSKMYRDFKLRSAVIQNKQLRLLPQEHVYDKINGVWNLSSDQGNLGTFFITNVRIVWHANMNDSFNVSIPYLQIRSIKIRDSKFGLALVIESSQQSGGYVLGFKIDPVEKLQESVKEINSLHKVYSASPIFGVNYEMEEKPQPLEALTVEQIQDDVEIDSDDHTDAFVAYFADGNKQQDREPVFSEELGLAIEKLKDGFTLQGLWEVMS
